{"source": "the supplement of paper PMC9112550", "about": "“Optimization of the antimicrobial peptide Bac7 by deep mutational scanning” (BMC Biology, 2022);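 also: peptides expressed intracellularly from a pBAD plasmid library in pooled LB shake-flask culture, induced with 0.3% L-arabinose, DNA abundance read by NGS, three biological replicates, DESeq2 with apeglm shrinkage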"}
{"tested_on": "Escherichia coli TOP10", "assay": "shrunken log2 fold change of peptide-encoding DNA abundance (4.5 h post-induction vs induction); higher = less antimicrobial activity (less host growth inhibition)", "conditions": "time post-induction: 4.5 h; library: site-saturation at positions 5, 18, 19, 20"}
{"sequence": "RRIRYRPPRLPRPRPRPLLWPRP", "shrunken log2 fold change": -0.246}
{"sequence": "RRIRCRPPRLPRPRPRPRLRPRP", "shrunken log2 fold change": 0.925}
{"sequence": "RRIRVRPPRLPRPRPRPQQMPRP", "shrunken log2 fold change": 0.0393}
{"sequence": "RRIRQRPPRLPRPRPRPEANPRP", "shrunken log2 fold change": 0.0119}
{"sequence": "RRIRNRPPRLPRPRPRPAEEPRP", "shrunken log2 fold change": 0.119}
{"sequence": "RRIRARPPRLPRPRPRPHKCPRP", "shrunken log2 fold change": -0.205}
{"sequence": "RRIRLRPPRLPRPRPRPREEPRP", "shrunken log2 fold change": -0.0235}
{"sequence": "RRIRYRPPRLPRPRPRPSTRPRP", "shrunken log2 fold change": -0.367}
{"sequence": "RRIRDRPPRLPRPRPRPTNCPRP", "shrunken log2 fold change": -0.0515}
{"sequence": "RRIRDRPPRLPRPRPRPRESPRP", "shrunken log2 fold change": 0.583}
{"sequence": "RRIRCRPPRLPRPRPRPNRNPRP", "shrunken log2 fold change": -0.562}
{"sequence": "RRIRLRPPRLPRPRPRPYAEPRP", "shrunken log2 fold change": -0.101}
{"sequence": "RRIRSRPPRLPRPRPRPNTSPRP", "shrunken log2 fold change": -0.242}
{"sequence": "RRIRHRPPRLPRPRPRPRSAPRP", "shrunken log2 fold change": 0.356}
{"sequence": "RRIRNRPPRLPRPRPRPNGMPRP", "shrunken log2 fold change": -0.00904}
{"sequence": "RRIRLRPPRLPRPRPRPADPPRP", "shrunken log2 fold change": 0.0111}
{"sequence": "RRIRLRPPRLPRPRPRPNFTPRP", "shrunken log2 fold change": -0.501}
{"sequence": "RRIRPRPPRLPRPRPRPKFGPRP", "shrunken log2 fold change": -0.0973}
{"sequence": "RRIRLRPPRLPRPRPRPCINPRP", "shrunken log2 fold change": -0.209}
{"sequence": "RRIRCRPPRLPRPRPRPFYNPRP", "shrunken log2 fold change": -1.05}
{"sequence": "RRIRIRPPRLPRPRPRPSWLPRP", "shrunken log2 fold change": -0.373}
{"sequence": "RRIRQRPPRLPRPRPRPSNFPRP", "shrunken log2 fold change": -0.621}
{"sequence": "RRIRQRPPRLPRPRPRPIIAPRP", "shrunken log2 fold change": 0.00878}
{"sequence": "RRIRVRPPRLPRPRPRPNKMPRP", "shrunken log2 fold change": -0.411}
{"sequence": "RRIRCRPPRLPRPRPRPLYHPRP", "shrunken log2 fold change": -0.695}
{"sequence": "RRIRDRPPRLPRPRPRPQCAPRP", "shrunken log2 fold change": 0.0622}
{"sequence": "RRIRRRPPRLPRPRPRPCRAPRP", "shrunken log2 fold change": 0.182}
{"sequence": "RRIRLRPPRLPRPRPRPGMPPRP", "shrunken log2 fold change": -0.15}
{"sequence": "RRIRGRPPRLPRPRPRPPDHPRP", "shrunken log2 fold change": 0.982}
{"sequence": "RRIRMRPPRLPRPRPRPITHPRP", "shrunken log2 fold change": 0.0509}
{"sequence": "RRIRPRPPRLPRPRPRPEMHPRP", "shrunken log2 fold change": 0.395}
{"sequence": "RRIRQRPPRLPRPRPRPRGVPRP", "shrunken log2 fold change": -0.0152}
{"sequence": "RRIRDRPPRLPRPRPRPDLCPRP", "shrunken log2 fold change": -0.0018}
{"sequence": "RRIRPRPPRLPRPRPRPKDSPRP", "shrunken log2 fold change": -0.157}
{"sequence": "RRIRPRPPRLPRPRPRPTNCPRP", "shrunken log2 fold change": -0.169}
{"sequence": "RRIRLRPPRLPRPRPRPIYYPRP", "shrunken log2 fold change": -0.561}
{"sequence": "RRIRTRPPRLPRPRPRPDYIPRP", "shrunken log2 fold change": -0.323}
{"sequence": "RRIRFRPPRLPRPRPRPSLVPRP", "shrunken log2 fold change": -0.167}
{"sequence": "RRIRSRPPRLPRPRPRPNEIPRP", "shrunken log2 fold change": -0.12}
{"sequence": "RRIRLRPPRLPRPRPRPAFDPRP", "shrunken log2 fold change": -0.0259}
{"sequence": "RRIRRRPPRLPRPRPRPIIRPRP", "shrunken log2 fold change": 0.0674}
{"sequence": "RRIRARPPRLPRPRPRPDIRPRP", "shrunken log2 fold change": 0.148}
{"sequence": "RRIRKRPPRLPRPRPRPQYFPRP", "shrunken log2 fold change": -0.0337}
{"sequence": "RRIRCRPPRLPRPRPRPGYQPRP", "shrunken log2 fold change": -0.06}
{"sequence": "RRIRIRPPRLPRPRPRPLTEPRP", "shrunken log2 fold change": -0.044}
{"sequence": "RRIRQRPPRLPRPRPRPMCRPRP", "shrunken log2 fold change": -0.0374}
{"sequence": "RRIRTRPPRLPRPRPRPQKDPRP", "shrunken log2 fold change": -0.455}
{"sequence": "RRIRKRPPRLPRPRPRPYCEPRP", "shrunken log2 fold change": -0.102}
{"sequence": "RRIRNRPPRLPRPRPRPQSKPRP", "shrunken log2 fold change": -0.301}
{"sequence": "RRIRNRPPRLPRPRPRPKMQPRP", "shrunken log2 fold change": -0.0708}
{"sequence": "RRIRSRPPRLPRPRPRPCLYPRP", "shrunken log2 fold change": -0.198}
{"sequence": "RRIRTRPPRLPRPRPRPQFQPRP", "shrunken log2 fold change": 0.183}
{"sequence": "RRIRNRPPRLPRPRPRPVHDPRP", "shrunken log2 fold change": 0.068}
{"sequence": "RRIRPRPPRLPRPRPRPMDVPRP", "shrunken log2 fold change": -0.0123}
{"sequence": "RRIRFRPPRLPRPRPRPWPSPRP", "shrunken log2 fold change": -0.0611}
{"sequence": "RRIRIRPPRLPRPRPRPSAMPRP", "shrunken log2 fold change": -0.349}
{"sequence": "RRIRQRPPRLPRPRPRPYYLPRP", "shrunken log2 fold change": -0.253}
{"sequence": "RRIRMRPPRLPRPRPRPGHMPRP", "shrunken log2 fold change": -0.203}
{"sequence": "RRIRSRPPRLPRPRPRPEDTPRP", "shrunken log2 fold change": -0.00541}
{"sequence": "RRIRQRPPRLPRPRPRPVCLPRP", "shrunken log2 fold change": -0.161}
{"sequence": "RRIRYRPPRLPRPRPRPQARPRP", "shrunken log2 fold change": -0.0547}
{"sequence": "RRIRDRPPRLPRPRPRPGNMPRP", "shrunken log2 fold change": -0.164}
{"sequence": "RRIRFRPPRLPRPRPRPEFVPRP", "shrunken log2 fold change": 0.0629}
{"sequence": "RRIRIRPPRLPRPRPRPIFMPRP", "shrunken log2 fold change": -0.376}
{"sequence": "RRIRIRPPRLPRPRPRPKCAPRP", "shrunken log2 fold change": 0.0106}
{"sequence": "RRIRKRPPRLPRPRPRPSPMPRP", "shrunken log2 fold change": 0.132}
{"sequence": "RRIRHRPPRLPRPRPRPVQLPRP", "shrunken log2 fold change": -0.0712}
{"sequence": "RRIRIRPPRLPRPRPRPIKTPRP", "shrunken log2 fold change": -0.0553}
{"sequence": "RRIRGRPPRLPRPRPRPQYAPRP", "shrunken log2 fold change": 0.285}
{"sequence": "RRIRTRPPRLPRPRPRPWHEPRP", "shrunken log2 fold change": 0.111}
{"sequence": "RRIRVRPPRLPRPRPRPIHYPRP", "shrunken log2 fold change": -0.137}
{"sequence": "RRIRLRPPRLPRPRPRPHSTPRP", "shrunken log2 fold change": -0.149}
{"sequence": "RRIRHRPPRLPRPRPRPMLNPRP", "shrunken log2 fold change": -0.114}
{"sequence": "RRIRQRPPRLPRPRPRPENRPRP", "shrunken log2 fold change": 0.0211}
{"sequence": "RRIRNRPPRLPRPRPRPYEQPRP", "shrunken log2 fold change": -0.54}
